Measured values published in US20120039865A1, “IDENTIFICATION OF SORTILIN AS A NEURONAL RECEPTOR FOR THE FRONTOTEMPORAL DEMENTIA PROTEIN, PROGRANULIN” (Yale University, priority 2008, published 2012).

Target: endogenous mouse sortilin (Sort1) of mouse brain lysate, mouse cortical neurons and mice in vivo (mouse) (UniProt Q6PHU5)
Experiment: cell-based or functional assay

Sequence of endogenous mouse sortilin (Sort1) of mouse brain lysate, mouse cortical neurons and mice in vivo (mouse) (Q6PHU5 74-825 limits assumed): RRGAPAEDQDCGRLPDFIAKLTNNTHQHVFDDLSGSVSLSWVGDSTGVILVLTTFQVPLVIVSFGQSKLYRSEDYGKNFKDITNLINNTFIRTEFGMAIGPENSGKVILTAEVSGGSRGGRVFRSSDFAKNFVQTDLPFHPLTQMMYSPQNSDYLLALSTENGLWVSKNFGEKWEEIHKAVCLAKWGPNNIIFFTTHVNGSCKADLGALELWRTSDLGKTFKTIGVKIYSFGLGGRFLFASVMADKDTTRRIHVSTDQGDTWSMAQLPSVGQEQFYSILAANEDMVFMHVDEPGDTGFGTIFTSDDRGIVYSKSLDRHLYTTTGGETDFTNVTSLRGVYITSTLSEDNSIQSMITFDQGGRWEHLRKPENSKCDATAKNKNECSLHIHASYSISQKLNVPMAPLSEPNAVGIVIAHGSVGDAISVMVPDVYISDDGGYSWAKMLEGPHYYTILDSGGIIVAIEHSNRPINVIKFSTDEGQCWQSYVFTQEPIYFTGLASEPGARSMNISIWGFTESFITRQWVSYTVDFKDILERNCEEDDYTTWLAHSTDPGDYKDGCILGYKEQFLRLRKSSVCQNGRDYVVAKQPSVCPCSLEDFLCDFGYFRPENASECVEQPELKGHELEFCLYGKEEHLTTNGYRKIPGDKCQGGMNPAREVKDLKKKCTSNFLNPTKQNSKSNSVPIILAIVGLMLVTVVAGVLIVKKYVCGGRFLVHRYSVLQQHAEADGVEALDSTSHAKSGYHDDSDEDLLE

- fold-increase in PGRN level in brain of sortilin -/- mice: 3 fold
- fold-increase in PGRN level in serum of sortilin -/- mice (immunoblot): 4 fold
Substance: endogenous mouse PGRN (serum and brain of mice) (from UniProt P28798 18-589) (ligand)
